The record followed here is patent publication US20070110818A1, “Milk fractions and milk preparations for treating and/or preventing cox-2 mediated diseases” (priority 2003, published 2007).

This test addresses T1, COX-2 (Homo sapiens, UniProt P35354).
T1 construct: treated with 100 nM (nmol/l) phorbol 12-myristate 13-acetate for 6 h at 37° C. to induce COX-2 isoenzyme; endogenous in cells; host or cells: HUV-EC-C (ATCC CRL1730), PMA-induced
T1 sequence (P35354 18-604): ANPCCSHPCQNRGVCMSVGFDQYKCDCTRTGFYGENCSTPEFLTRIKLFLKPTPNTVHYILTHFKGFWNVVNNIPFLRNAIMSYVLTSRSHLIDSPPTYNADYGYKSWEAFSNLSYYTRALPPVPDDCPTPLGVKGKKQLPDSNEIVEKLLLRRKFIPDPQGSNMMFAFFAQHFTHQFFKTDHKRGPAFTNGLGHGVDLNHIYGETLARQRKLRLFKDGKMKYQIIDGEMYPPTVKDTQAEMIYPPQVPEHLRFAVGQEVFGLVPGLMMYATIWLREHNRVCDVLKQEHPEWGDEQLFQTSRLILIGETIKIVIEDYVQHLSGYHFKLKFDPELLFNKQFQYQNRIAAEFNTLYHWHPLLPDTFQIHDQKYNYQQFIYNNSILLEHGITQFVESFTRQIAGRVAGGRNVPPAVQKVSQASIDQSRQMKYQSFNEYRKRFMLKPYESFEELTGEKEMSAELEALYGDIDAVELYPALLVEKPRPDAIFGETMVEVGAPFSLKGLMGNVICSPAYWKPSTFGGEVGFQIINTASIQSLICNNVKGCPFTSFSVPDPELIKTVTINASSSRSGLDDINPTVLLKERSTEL
Description: COX-2 screening in PMA-induced HUV-EC-C cells (Prostaglandine-E2 production by RIA). Type of test: cell-based. The protocol:
HUV-EC-C cells (a permanent endothelial cell line derived from the vein of a normal human umbilical cord; ATCC CRL1730; M. Miralpeix, M. Camacho et al., Brit. J. Pharmacol. 121 (1997), 171-180), were seeded onto 96-well plates (RPMI 1640+10% FCS) and treated with 100 nM (nmol/l) phorbol 12-myristate 13-acetate for 6 h at 37° C. to induce COX-2 isoenzyme. 50 μM (μmol/l) arachidonic acid were then added and the cells were incubated in the presence of test compounds or mixtures for 30 min at 37° C. Prostaglandine-E2 production was measured by radioimmuno assay (RIA) and the radioactivity determined with a scintillation counter (Topcount, Packard) using a liquid scintillation cocktail (Packard).
The results obtained are expressed as a percent of control values and as a percent inhibition of control values obtained in the presence of the test compounds. The control values correspond to the COX-2 activity of HUV-EC-C cells after stimulation with Phorbol Myristate Acetate (PMA) during 6 hours at 37° C. (can be done also with Tumor Necrosis Factor type alpha: TNFα) in absence of test compound.
The concentration causing a half-maximal inhibition of control values (IC50 value) and Hill coefficients (nH) were determined for the reference compounds (cycloheximide) by nonlinear regression analysis of their inhibition curves. These parameters were obtained by Hill equation curve fitting. […]

B1: Lactoferrin (protein, UniProt P02788 20-710, looked up)
Lactotransferrin: GRRRSVQWCAVSQPEATKCFQWQRNMRKVRGPPVSCIKRDSPIQCIQAIAENRADAVTLDGGFIYEAGLAPYKLRPVAAEVYGTERQPRTHYYAVAVVKKGGSFQLNELQGLKSCHTGLRRTAGWNVPIGTLRPFLNWTGPPEPIEAAVARFFSASCVPGADKGQFPNLCRLCAGTGENKCAFSSQEPYFSYSGAFKCLRDGAGDVAFIRESTVFEDLSDEAERDEYELLCPDNTRKPVDKFKDCHLARVPSHAVVARSVNGKEDAIWNLLRQAQEKFGKDKSPKFQLFGSPSGQKDLLFKDSAIGFSRVPPRIDSGLYLGSGYFTAIQNLRKSEEEVAARRARVVWCAVGEQELRKCNQWSGLSEGSVTCSSASTTEDCIALVLKGEADAMSLDGGYVYTAGKCGLVPVLAENYKSQQSSDPDPNCVDRPVEGYLAVAVVRRSDTSLTWNSVKGKKSCHTAVDRTAGWNIPMGLLFNQTGSCKFDEYFSQSCAPGSDPRSNLCALCIGDEQGENKCVPNSNERYYGYTGAFRCLAENAGDVAFVKDVTVLQNTDGNNNEAWAKDLKLADFALLCLDGKRKPVTEARSCHLAMAPNHAVVSRMDKVERLKQVLLHQQAKFGRNGSDCPDKFCLFQSETKNLLFNDNTECLARLHGKTTYEKYLGPQYVAGITNLKKCSTSPLLEACEFLRK
Consider B1, for which the “cyclooxygenase-2 inhibiting activity (in words)” value is “not to have any cyclooxygense-2 inhibiting activity”.
